Assay [1] has as its target recombinant human IL-5 protein with His tag (human, UniProt P05113 20-134, limits assumed, biotin-labeled in the ELISA and in the receptor blocking assay (site not stated)). Nature of the assay: cell-based or functional assay.
Assay [2] addresses recombinant human IL-5 protein (human, UniProt P05113 20-134, limits assumed). Briefly: cell-based or functional assay.
The target of assay [3] is T1, recombinant monkey IL-5 (monkey (cynomolgus macaques)). Briefly: ELISA, monkey IL-5, Ab 0.0002 nM. As to the method: (§1) The titer of antibody reacting with human IL-5 protein and the cross reaction with mouse and monkey IL-5 protein were detected and analyzed by enzyme-linked immunosorbent assay (ELISA). Streptavidin was diluted with PBS to a final concentration of 1.0 μg/ml, and then added to a 96-well enzyme-labeled plate as 100 microliters per well. The plate was incubated at 4° C. overnight. On the second day, the plate was washed twice with washing solution (PBS+0.01% Tween20). The blocking solution (PBS+0.05% Tween20+2% BSA) was added for blocking at 37° C. for 1-2 hours. Then the blocking solution was discarded. The biotin-labeled human IL-5 was diluted with sample diluent (PBS+0.05% Tween20+0.2% BSA) to 0.5 μg/ml, and added to an enzyme-labeled plate at 50-100 microliters per well, and incubated at 37° C. for 1 hour. The plate was washed with plate washing solution (PBS+0.05% Tween 20) for 2-3 times. 50-100 microliters of antibody samples to be tested were added to each well, and incubated at 37° C. for 1 hour. Then the plate was washed with plate washing solution (PBS+0.05% Tween20) for 2-3 times. […] The value of O.D. 450 nm was read by ELISA plate reader (SpectraMax M5e, Molecular Device).
(§2) The titer of chimeric antibody reacting with human IL-5 protein and the cross reaction with mouse and monkey IL-5 protein were detected and analyzed by enzyme-linked immunosorbent assay (ELISA). […]
(In general: An ELISA detects its analyte on a solid surface through an enzyme-linked reagent.)

The target in assay [4] is T1, recombinant monkey IL-5. Nature of the assay: ELISA, monkey IL-5, Ab 0.0043 nM. How it is done:
as §1, §2

The target in assay [5] is T2, mouse IL-5 (mouse, UniProt P04401 21-133).
T2 sequence (looked up): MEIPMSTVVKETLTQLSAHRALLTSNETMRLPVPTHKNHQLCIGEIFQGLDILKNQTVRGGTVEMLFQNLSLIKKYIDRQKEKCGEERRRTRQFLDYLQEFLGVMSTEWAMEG
Briefly: ELISA, mouse IL-5, Ab 0.0043 nM. As to the method: as §1, §2

The target in assay [6] is T2, mouse IL-5. Nature of the assay: ELISA, mouse IL-5, Ab 0.0002 nM. How it is done:
as §1, §2

For assay [7], the target named is T3, mouse IL-5 (mouse, UniProt P04401 21-133).
T3 construct: Source and construct of the mouse IL-5 are not described; also called mouse IL-5 protein
T3 sequence (looked up): T2 sequence (looked up)
Nature of the assay: ELISA on mouse IL-5; antibody 0.0002 nM. How it is done:
The titer of antibody reacting with human IL-5 protein and the cross reaction with mouse and monkey IL-5 protein were detected and analyzed by enzyme-linked immunosorbent assay (ELISA). Streptavidin was diluted with PBS to a final concentration of 1.0 μg/ml, and then added to a 96-well enzyme-labeled plate as 100 microliters per well. The plate was incubated at 4° C. overnight. On the second day, the plate was washed twice with washing solution (PBS+0.01% Tween20). The blocking solution (PBS+0.05% Tween20+2% BSA) was added for blocking at 37° C. for 1-2 hours. Then the blocking solution was discarded. The biotin-labeled human IL-5 was diluted with sample diluent (PBS+0.05% Tween20+0.2% BSA) to 0.5 μg/ml, and added to an enzyme-labeled plate at 50-100 microliters per well, and incubated at 37° C. for 1 hour. The plate was washed with plate washing solution (PBS+0.05% Tween 20) for 2-3 times. 50-100 microliters of antibody samples to be tested were added to each well, and incubated at 37° C. for 1 hour. Then the plate was washed with plate washing solution (PBS+0.05% Tween20) for 2-3 times. The horseradish peroxidase labeled secondary antibody against human or mouse IgG was added, and reacted at 37° C. for 1 hour. The plate was washed with plate washing solution (PBS+0.05% Tween 20) for 2-3 times. […] The value of O.D. 450 nm was read by ELISA plate reader (SpectraMax M5e, Molecular Device).

Numbering of substitutions follows the chain as printed.

B1: 147D7H2 (as tested in Example 9, format not stated) (antibody, V domains shown)
VH: EVQLQQSGAELVKPGASVKLSCTASGFNIKDYFIHWVKQRTEQGLEWIGRIDTEDGETKYAPKFQGKATITIDTSSNTAYLYFSSLTSEDTAMYYCARYGNYVAMDYWGQGTSVTVSS
VL: QIVLTQSPALMSASPGEKVTMTCSASSSVSYMFWYQQKPSSSPKPWIYLTSKLASGVPARFSGSGSGTSYSLTISSVEAEDAATYYCQQWNSNPYTFGGGTKLEIK
For the molecule B1, in assay [1], the “TF1 (IC50), TF1 proliferation induced by IL-5” value (“TF1 (IC50)” below) is roughly 1 pM.

B2: 151G3B11 (as tested in Example 9, format not stated) (antibody, V domains shown)
VH: EVHLQQSGAELVKPGASVKLSCTASGFNIKDYYMHWVKQRTEQGLEWIGRIDPEDGETKYAPKFQGQATITADTSSNTANLQLSSLTSEDTAVYYCARYGNFPDYWGPGTTLTVSS
VL: B1 VL with F33Y, S40R, V77M
On to B2, for which the “TF1 (IC50)” value in assay [1] is roughly 1 pM.

B3: 147D7H2 (as tested in Example 9; murine or chimeric form not stated) (antibody, V domains shown)
VH: B1 VH
VL: B1 VL
B3: the “TF1 (IC50, nM)” value in assay [2] turned out to be 0.002 nM.

B4: 147D7H2 mouse-human chimeric antibody (antibody, V domains shown)
VH: B1 VH
VL: B1 VL
Consider B4, for which the results for the OD450 nm in assay [3] and in assay [4] were 0.093 OD450 nm and 0.092 OD450 nm, respectively.

B5: 102A2E11B6 (as tested in Example 9, format not stated) (antibody, V domains shown)
VH: QVQLRQSGPGLVQPSQSLSITCTVSGFSLTSYGVHWVRQSPGKGLEWLGVIWSGGSTDYNAVFMSRLSISKDSSKSQVFFKMNSLQTDDTAIYYCARNRYVLDYWGQGTSVTVSS
VL: DIVMTQSPSSLSVSAGERVTMRCKSSQSLLTSGDQKNHLAWYQQKPGQPPKLLIYGASTRESGVPDRFTGSGSGTDFTLTITSVQAEDLAVYYCQNDHSFPLTFGAGTKLELK
For the molecule B5, in assay [1], the “TF1 (IC50)” value is roughly 1 pM.

B6: 102A2E11B6 mouse-human chimeric antibody (antibody, V domains shown)
VH: B5 VH
VL: B5 VL
As to B6, the figures for the OD450 nm in assay [5] and in assay [6] were 0.069 OD450 nm and 0.046 OD450 nm, respectively.

B7: 69F2F3 (murine hybridoma antibody) (antibody, V domains shown)
VH: QVQLKQSGPGLVQPSQSLSITCTVSGFSLSNYGVHWVRQSPGKGLEWLGVIWSGGSTDYNAAFKSRLSITKDNSKSQVVFRMNSLQTDDTATYYCARNKDFLDYWGQGTKFTVSS
VL: DIVMTQSPSSLTVTAGEKVTMTCKSSQGLLNSGNQKNYLTWYQQKPGQPPKLLIYWASTRESGVPDRFTGSGSGTDFTLTISSVQAEDLAVYYCQNDYHFPLTFGAGTKLELK
notes: Mouse monoclonal antibody from hybridoma, purified on Protein G; also called lead antibody; antibody number 3
Molecule B7 displayed an OD450 nm in assay [7] of 0.049.

These data come from US20220010008A1 (SHANGHAI PHARMAEXPLORER, published 2022).
